Laboratory results published in US11833164B2, “Methods of treating Fabry disease in patients having a mutation in the GLA gene” (Amicus Therapeutics, Inc., priority 2019, dated 2023).

Test system: mutant form of α-Gal A expressed in HEK-293 cells
Test: HEK assay (GLP HEK / Migalastat Amenability Assay): α-Gal A activity in lysates of transiently transfected HEK-293 cells incubated with or without 10 μM migalastat
Assay type: cell-based, human
Details: for Absolute increase (% WT) / Relative increase: 10 μM migalastat versus baseline; for Baseline α-Gal A activity (% WT): absence of migalastat; for Baseline α-Gal A activity (% WT) / 10 μM migalastat α-Gal A activity (% WT): percentage of baseline wild-type α-Gal A activity; for Baseline α-Gal A activity (% WT) / Baseline α-Gal A activity / 10 μM migalastat α-Gal A activity / 10 μM migalastat α-Gal A activity (% WT): mean ± SEM; for Baseline α-Gal A activity / 10 μM migalastat α-Gal A activity: lysates of HEK-293 cells transiently transfected with the mutant form; for Baseline α-Gal A activity: incubated 5 days in absence of migalastat; for 10 μM migalastat α-Gal A activity: incubated 5 days with 10 μM migalastat; for 10 μM migalastat α-Gal A activity (% WT): with 10 μM migalastat, 5 days
Outline: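 Activity reported as 4-MU released (nmol/mg/hr), mean±SEM, from lysates of transiently transfected HEK-293 cells expressing mutant α-Gal A, cultured with or without 10 μM migalastat.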

Molecule | Absolute increase (% WT) | Relative increase | Baseline α-Gal A activity (% WT) | Baseline α-Gal A activity [nmol/mg/h] | 10 μM migalastat α-Gal A activity [nmol/mg/h] | 10 μM migalastat α-Gal A activity (% WT)
E338A (protein) MQLRNPELHLGCALALRFLALVSWDIPGARALDNGLARTPTMGWLHWERFMCNLDCQEEPDSCISEKLFMEMAELMVSEGWKDAGYEYLCIDDCWMAPQRDSEGRLQADPQRFPHGIRQLANYVHSKGLKLGIYADVGNKTCAGFPGSFGYYDIDAQTFADWGVDLLKFDGCYCDSLENLADGYKHMSLALNRTGRSIVYSCEWPLYMWPFQKPNYTEIRQYCNHWRNFADIDDSWKSIKSILDWTSFNQERIVDVAGPGGWNDPDMLVIGNFGLSWNQQVTQMALWAIMAAPLFMSNDLRHISPQAKALLQDKDVIAINQDPLGKQGYQLRQGDNFAVWERPLSGLAWAVAMINRQEIGGPRSYTIAVASLGKGVACNPACFITQLLPVKRKLGFYEWTSRLRSHINPTGTVLLQLENTMQMSLKDLL | 24.8 | 1.7 | 39.5 ± 2.3 | 15626 ± 769 | 25719 ± 1376 | 64.3 ± 3
E338D (protein) MQLRNPELHLGCALALRFLALVSWDIPGARALDNGLARTPTMGWLHWERFMCNLDCQEEPDSCISEKLFMEMAELMVSEGWKDAGYEYLCIDDCWMAPQRDSEGRLQADPQRFPHGIRQLANYVHSKGLKLGIYADVGNKTCAGFPGSFGYYDIDAQTFADWGVDLLKFDGCYCDSLENLADGYKHMSLALNRTGRSIVYSCEWPLYMWPFQKPNYTEIRQYCNHWRNFADIDDSWKSIKSILDWTSFNQERIVDVAGPGGWNDPDMLVIGNFGLSWNQQVTQMALWAIMAAPLFMSNDLRHISPQAKALLQDKDVIAINQDPLGKQGYQLRQGDNFDVWERPLSGLAWAVAMINRQEIGGPRSYTIAVASLGKGVACNPACFITQLLPVKRKLGFYEWTSRLRSHINPTGTVLLQLENTMQMSLKDLL | 15.2 | 1.2 | 65.7 ± 4.9 | 25700 ± 1958 | 31632 ± 1825 | 80.9 ± 4.6
E338G (protein) MQLRNPELHLGCALALRFLALVSWDIPGARALDNGLARTPTMGWLHWERFMCNLDCQEEPDSCISEKLFMEMAELMVSEGWKDAGYEYLCIDDCWMAPQRDSEGRLQADPQRFPHGIRQLANYVHSKGLKLGIYADVGNKTCAGFPGSFGYYDIDAQTFADWGVDLLKFDGCYCDSLENLADGYKHMSLALNRTGRSIVYSCEWPLYMWPFQKPNYTEIRQYCNHWRNFADIDDSWKSIKSILDWTSFNQERIVDVAGPGGWNDPDMLVIGNFGLSWNQQVTQMALWAIMAAPLFMSNDLRHISPQAKALLQDKDVIAINQDPLGKQGYQLRQGDNFGVWERPLSGLAWAVAMINRQEIGGPRSYTIAVASLGKGVACNPACFITQLLPVKRKLGFYEWTSRLRSHINPTGTVLLQLENTMQMSLKDLL | 16.8 | 2.0 | 17.1 ± 1.1 | 6415 ± 391 | 12588 ± 538 | 33.9 ± 1.8
V339M (protein) MQLRNPELHLGCALALRFLALVSWDIPGARALDNGLARTPTMGWLHWERFMCNLDCQEEPDSCISEKLFMEMAELMVSEGWKDAGYEYLCIDDCWMAPQRDSEGRLQADPQRFPHGIRQLANYVHSKGLKLGIYADVGNKTCAGFPGSFGYYDIDAQTFADWGVDLLKFDGCYCDSLENLADGYKHMSLALNRTGRSIVYSCEWPLYMWPFQKPNYTEIRQYCNHWRNFADIDDSWKSIKSILDWTSFNQERIVDVAGPGGWNDPDMLVIGNFGLSWNQQVTQMALWAIMAAPLFMSNDLRHISPQAKALLQDKDVIAINQDPLGKQGYQLRQGDNFEMWERPLSGLAWAVAMINRQEIGGPRSYTIAVASLGKGVACNPACFITQLLPVKRKLGFYEWTSRLRSHINPTGTVLLQLENTMQMSLKDLL | 18.2 | 1.3 | 63.5 ± 2.9 | 26113 ± 1116 | 33867 ± 2526 | 81.7 ± 5
E341A (protein) MQLRNPELHLGCALALRFLALVSWDIPGARALDNGLARTPTMGWLHWERFMCNLDCQEEPDSCISEKLFMEMAELMVSEGWKDAGYEYLCIDDCWMAPQRDSEGRLQADPQRFPHGIRQLANYVHSKGLKLGIYADVGNKTCAGFPGSFGYYDIDAQTFADWGVDLLKFDGCYCDSLENLADGYKHMSLALNRTGRSIVYSCEWPLYMWPFQKPNYTEIRQYCNHWRNFADIDDSWKSIKSILDWTSFNQERIVDVAGPGGWNDPDMLVIGNFGLSWNQQVTQMALWAIMAAPLFMSNDLRHISPQAKALLQDKDVIAINQDPLGKQGYQLRQGDNFEVWARPLSGLAWAVAMINRQEIGGPRSYTIAVASLGKGVACNPACFITQLLPVKRKLGFYEWTSRLRSHINPTGTVLLQLENTMQMSLKDLL | 11.6 | 4.1 | 3.8 ± 0.4 | 1444 ± 159 | 5855 ± 690 | 15.4 ± 1.3
E341Q (protein) MQLRNPELHLGCALALRFLALVSWDIPGARALDNGLARTPTMGWLHWERFMCNLDCQEEPDSCISEKLFMEMAELMVSEGWKDAGYEYLCIDDCWMAPQRDSEGRLQADPQRFPHGIRQLANYVHSKGLKLGIYADVGNKTCAGFPGSFGYYDIDAQTFADWGVDLLKFDGCYCDSLENLADGYKHMSLALNRTGRSIVYSCEWPLYMWPFQKPNYTEIRQYCNHWRNFADIDDSWKSIKSILDWTSFNQERIVDVAGPGGWNDPDMLVIGNFGLSWNQQVTQMALWAIMAAPLFMSNDLRHISPQAKALLQDKDVIAINQDPLGKQGYQLRQGDNFEVWQRPLSGLAWAVAMINRQEIGGPRSYTIAVASLGKGVACNPACFITQLLPVKRKLGFYEWTSRLRSHINPTGTVLLQLENTMQMSLKDLL | 19.7 | 1.4 | 55.5 ± 3.7 | 20802 ± 2164 | 28411 ± 2891 | 75.2 ± 4.1
P343A (protein) MQLRNPELHLGCALALRFLALVSWDIPGARALDNGLARTPTMGWLHWERFMCNLDCQEEPDSCISEKLFMEMAELMVSEGWKDAGYEYLCIDDCWMAPQRDSEGRLQADPQRFPHGIRQLANYVHSKGLKLGIYADVGNKTCAGFPGSFGYYDIDAQTFADWGVDLLKFDGCYCDSLENLADGYKHMSLALNRTGRSIVYSCEWPLYMWPFQKPNYTEIRQYCNHWRNFADIDDSWKSIKSILDWTSFNQERIVDVAGPGGWNDPDMLVIGNFGLSWNQQVTQMALWAIMAAPLFMSNDLRHISPQAKALLQDKDVIAINQDPLGKQGYQLRQGDNFEVWERALSGLAWAVAMINRQEIGGPRSYTIAVASLGKGVACNPACFITQLLPVKRKLGFYEWTSRLRSHINPTGTVLLQLENTMQMSLKDLL | 21.2 | 1.3 | 69.5 ± 4.9 | 25254 ± 2385 | 32890 ± 2292 | 90.7 ± 3.7
P343S (protein) MQLRNPELHLGCALALRFLALVSWDIPGARALDNGLARTPTMGWLHWERFMCNLDCQEEPDSCISEKLFMEMAELMVSEGWKDAGYEYLCIDDCWMAPQRDSEGRLQADPQRFPHGIRQLANYVHSKGLKLGIYADVGNKTCAGFPGSFGYYDIDAQTFADWGVDLLKFDGCYCDSLENLADGYKHMSLALNRTGRSIVYSCEWPLYMWPFQKPNYTEIRQYCNHWRNFADIDDSWKSIKSILDWTSFNQERIVDVAGPGGWNDPDMLVIGNFGLSWNQQVTQMALWAIMAAPLFMSNDLRHISPQAKALLQDKDVIAINQDPLGKQGYQLRQGDNFEVWERSLSGLAWAVAMINRQEIGGPRSYTIAVASLGKGVACNPACFITQLLPVKRKLGFYEWTSRLRSHINPTGTVLLQLENTMQMSLKDLL | 19.0 | 1.3 | 62.1 ± 2.7 | 22132 ± 1243 | 29289 ± 2351 | 81.1 ± 4.6
L344F (protein) MQLRNPELHLGCALALRFLALVSWDIPGARALDNGLARTPTMGWLHWERFMCNLDCQEEPDSCISEKLFMEMAELMVSEGWKDAGYEYLCIDDCWMAPQRDSEGRLQADPQRFPHGIRQLANYVHSKGLKLGIYADVGNKTCAGFPGSFGYYDIDAQTFADWGVDLLKFDGCYCDSLENLADGYKHMSLALNRTGRSIVYSCEWPLYMWPFQKPNYTEIRQYCNHWRNFADIDDSWKSIKSILDWTSFNQERIVDVAGPGGWNDPDMLVIGNFGLSWNQQVTQMALWAIMAAPLFMSNDLRHISPQAKALLQDKDVIAINQDPLGKQGYQLRQGDNFEVWERPFSGLAWAVAMINRQEIGGPRSYTIAVASLGKGVACNPACFITQLLPVKRKLGFYEWTSRLRSHINPTGTVLLQLENTMQMSLKDLL | 9.0 | 16.7 | 0.6 ± 0.1 | 217 ± 25 | 3629 ± 614 | 9.6 ± 1.4
